Laboratory results: the DeepSol protein solubility set

Experiment: soluble on expression in E. coli; label from the status in PepcDB or PDB records

Soluble on expression in E. coli, not soluble:
MIAKIIKGTSFSGVLAYILGKQEGKARILYADGVRANAQASDIANDFALQASMRPNVKKPVCHTILSFSAEDTERLSDKVMTDLAKEYLQRMGYADTQYLIVRHLDREHPHLHICINRVNNEGKTISDSNEKYCSTKVCKELTEANLLKWGEGKEAVKRHRLRGNDQLRYAIFDAIKAALPKCTNWQELTSELQKRGIEVQFKTKGQTEKVEGVIFSMDGVSFSGSHIDRSCSYSKLSFALEQNAKHALSLPALPKEDGFIEELSEAIEKLGENLFDSNAPAVDVAELIFQRKLRNQANKKLKRRRL, MGRKNSPSANKELNELIAQYETARAENRQLYLDGDQLADIADQYAAERKFNEAQEVITYGLHLHPDSTDLLVEQAYLYLDTGKIPLAKKVVESITDEYDTDVKMLKAELMLNEGQLENARNVLDTIEDADELETIINIVYLYMDMGYPEAAKEWLDKGAPRHGKKEDFMAVMADYLTGTNQLEAASTFYNQLIDIDPYNASYWVGLAKCRFAAEDCEKAIEACDFALAADDKCGEAYAYRGHSYFYLNNSDAAIEDYKKAIKYKALPPEMGYMFLGLTYSNKEAWKEADDYYQRVIDRFIEEGLGNSPLLIDTYTNKAVAASRLGKYEEAHQLCKKAIAIQPDDPAIYLAEGKLYIQENQKKKAVKSFDKALTMEPSAEMWYMVASAYSDAEYLYQAKLCFQEAYRIDPNYADIAEKLSVLSLMHNEIDDFFKYNNESEHPISEDIILELLSRPNQTEEGEQMLREVWERMKKEKGNN, MSNDQIWDLLGHQIQIELDTGDVRRQESTTGHLMTRDPVSQSLLIAKIEENSTSIKSIEWIPSCSVKSIRKLKNTENPEIHVAIEKYFENDGIEGGSSGAEDSEEDIKKRAHRVVNYLKSHHLDVVEKPNGTYIIAGTVRFERPYHNANLYCDIPIVLKRILKLVEEI, MGSDKIHHHHHHMTTILHAMLGKGLGGLEQVFLDYQPILEAWAARRGGRCVGVVRKGGKMAVAQANRTPPLSAMPALTDWDPITVGAARALVKTYRPALIFSHGQRPARVFDKAAPADVVRAVCLHKPSFDVTPGTHYVCVGQHLAALAIERGAPADHVWLVPNAVKPPGVEAQPFAEAGRPIRIVAAGRLHPKKGFDVLIHAVGKLRAWDYEVTCEIAGEGDERGALEGLIRDLDLEASVTLKGWTGDVAGFLATGDLFAFPSHQEGFPLTLLEAMAVGLPVVASEIDGPLEILTDGRDGRLVPDNDPDRLAEALAELISDRETAVRLGAAARQQVLTEYSPQELARRLEAALDGMTSRA, MSLGKLIVPILKSPSHLGHSSSRVNRLYNEDKYSANLLQVKESQIFNFSIFDGHGGDQCSTYLAENLSLALEDLDQLVENDNDRQELFKKYAKNVGGYWKRWYKHRDNTVANWEKERIKLKNFLSDDLATRVPLAFLNADYNFFSKEQKSGSTCTSAMIETIYSKPGTFQPFFENYYFNRHTISKLSIGHLGDTRAIVADKNGLAHTLTTDHHPLNPIEAKRLRKYAANFFMTDSFGEERFVALANTRAFGDVDYKEVGVTAEPDFNQYIIGDLDAIKQFLTPDEIEKYTIGGLGGDESFLILCSDGVTNIMTDQEIADIVLTHVNLKGQTVATPQYCAEQVIKFVEFVGGDDNATCLVIRLNGWGNEGHHHHHH, MGSDKIHHHHHHMITCQMIHKTYAAGHGERKVLRGLDFAISRGEHVGFLGRNGAGKTTLIKLLGGVEFPTAGTIRRRMTVSWPLGFGGGFQGSLTGYDNARFIARIYGMSYRDIADFVEDFTELGRQLRAPVKTYSQGMRARLAFALSMAIEFDCYLVDEVILVGDHRFHEKCRLELFGKRSDRALILASHNAALIREHCTRAMVLHDGRGTMHDDIDLALRHYEAL, MGSDKIHHHHHHMNRLGKALPPLASLMPFEAAARLESFSRAADELHLTQAAISRQIRALEDDLGVALFERRNRGVFLTAAGREFGRTVSAALEGIAAQANALRQEVHDGVVVLFCQLCEAFYWVMPRLASLNRRHPELEVRLVTSTRPVVEHHDYFDVALQTSGRPSGSHALAFTASDEIFPICSPGYLAAQPRPITLASLPEHCLLHHEADPPDWFEWDSWLRAMGNFAPALGNGMVFDSYPLVLQAALAGHGIALGWRRSAEHLIQSGQLVRPLSMSLPLDNALSVYTRHGAQPRAETLALLDWLQREFRRDDQTTPA, MGSDKIHHHHHHMEISMRFTDINQERERILSCPVPGYFPRKDSFLELERLIGLREVKRTLAEVAAFTLIQNRRSELRLKSDPTALHMVFKGNPGTGKTTVARILGRVFNEIGILSKGHLLEVERADLVGEYIGHTAQKTREILKRAMGGIVFIDEAYSLAQGGERDFGKEAISTLVKAMEDYRDNLVVILAGYSQEIDRFLKSNPGLRSRFPIHIDFCDYNAEELFQIALQIYQEREYELTSRCRWKLKQQLNEFVKNRHSHSGNARYVRNLAEKSIRLQALRIVDKDAPVRRDLVTIEEADLPDPRSIQA

Soluble on expression in E. coli, soluble:
MTLSFDDAAATVKTLKTSPSNDELLKLYALFKQGTVGDNTTDKPGMFDLKGKAKWSAWDEKKGLAKDDAQKAYVALVEELIAKYGA, GSHMASADLVSSCKDKLAYFRIKELKDILNQLGLPKQGKKQDLIDRVLALLTDEQGQRHHGWGRKNSLTKEAVAKIVDDTYRKMQIQCAPDLATRSHSGSDFSFRPIEEA, MSLTIGFIFDLDGVITDTAKFHYQAWKALADSLGIPIDETFNETLKGISRMDSLDRILVHGHRENAFTPAEKEALAQQKNDHYVQLLEQLTTEDVLPGVVPLLQQAQARHIPCAVASASKNAPLILEKLGVRAYFATIVDPDSLSKGKPDPEIFLAAADSIGVLPQNAIGFEDAQSGIDGLKAAGIYAVGLSASQPLIGADMQVSEMTELSVDALLNREGHHHHHH, AMSNNKIKRKDASPEQEAIESFTSLTKCDPKVSRKYLQRNHWNINYALNDYYDKEIGTFTDEVSTVAHPPVYPKELTQVFEHYINNNLFDIDSLVKFIEELGYNLEDLATLCLAHLLGYKKLEEPLKREDFLSTWFMQGCSTISDMQECIKTLDVKLHEDLQYFTQIYNYAFNLILDPNRKDIDTDEGIQYWKLFFQPEYPVRMEPDLLEAWFRFLRDEGKTTISKDTWRMLLLFFKRYPTIQKIISDYDETAAWPFIIDEFYECLQDQQ, MQKIVIVANGAPYGSESLFNSLRLAIALREQESNLDLRLFLMSDAVTAGLRGQKPGEGYNIQQMLEILTAQNVPVKLCKTCTDGRGISTLPLIDGVEIGTLVELAQWTLSADKVLTF, MDLFCLGRDLQTRPQSKEALSAIILAPMEWDLSDLYSGPQDPRILQDLEAALALAQGLDPQGLLDPKGAQDLLERYEKALELAYKPLNYASLYFATRTQDPEAKALLDRVRSRFTEVRNRLVPLEVALRKLPEEAFQRLLAHPGLADLGHFLKRQRAYAPHTLSEREEELLNLKALVGRSAWSQFYTEYTGRFRFRVGERELTEMEVRALRRDPDPEVRREAHRALYGKLLAEAPTLSAVFNAVYLDYLQDLRLRGYRHPLEPVALRDEVEVREIEALLEATKAHYPLVERYYRWKAGRLGREKTPSEDLLAPLGEKPKVPFAEARALVLEAFRRFSPELAEIAREFFEKRWIDVYPRPGKRGGAFCSGGLPSTHPYILLNHTDDLDSAHTLAHELGHGVHFYLARKQRLLNFGASTPLAETASVFAEILLDDLLLERLSGEEKTLLLAERVEDAINTLFRQVMYTFFEQRSLEARKEAALSPEAFHALWDEEQRRLYGEAVAWTELDRAAWAGIPHFVHYRFYTYSYALGYLVVLALYGKYREEGEAFVPKYLRILEAGESASPKEILAEAGVELGSEAFFRYGFGVLESWLKALP, QVQLVQSGAEVKKPGSSVKVSCTSSEVTFSSFAISWVRQAPGQGLEWLGGISPMFGTPNYAQKFQGRVTITADQSTRTAYMDLRSLRSEDTAVYYCARSPSYICSGGTCVFDHWGQGTLVTVSSGGGGSGGGGSGGGGIQPGLTQPPSVSKGLRQTATLTCTGNSNNVGNQGAAWLQQHQGHPPKLLSYRNNDRPSGISERFSASRSGNTASLTITGLQPEDEADYYCSTWDSSLSAVVFGGGTKLTVLGQPKAAPSAAAEQKLISEEDLNGAAHHHHHH, QESVEDSLATVKVVLIPVGQEIVIPFKVDTILKYLKDHFSHLLGIPHSVLQIRYSGKILKNNETLVQHGVKPQEIVQVEIFSTNPDLYPVRRIDGLTDVSQIITV
